Data: PMC3314626 (2012)
Residue numbers refer to the chain shown, from its start.

B1: KLC1 TPR (protein)
chain: GGYEIPARLRTLHNLVIQYASQGRYEVAVPLCKQALEDLEKTSGHDHPDVATMLNILALVYRDQNKYKDAANLLNDALAIREKTLGKDHPAVAATLNNLAVLYGKRGKYKEAEPLCKRALEIREKVLGKDHPDVAKQLSNLALLCQNQGKYEEVEYYYQRALEIYQTKLGPDDPNVAKTKNNLASCYLKQGKFKQAETLYKEILTRAHEREFGSVDDENKPIWMHAEEREECKGKQKDGTSFGEYGGWYKACKVDSPTVTTTLKNLGALYRRQGKFEAAETLEEAAMRSRKQG
B2: KLC1 TPR (protein)
chain: B1 chain with S139N

Molecular target: T1, ALC1 peptide (Homo sapiens, UniProt O94985)
T1 chain: KENEMDWDDSALTI
Experiment: ITC

Row | Binder | Kd [µM]
1 | B1 | 44
2 | B2 | 50
